This passage reports percent dimeric species, stoichiometry N and binding occupancy results from PMC11758712.

The target in assay [1] is HEK-derived SARS-CoV-2 Wuhan-Hu-1 spike receptor-binding domain (RBDHEK) (SARS-CoV-2 (Wuhan-Hu-1)) (UniProt P0DTC2). Kind of assay: mass photometry.
Assay [2] concerns the target monomeric ACE2 (a.a 19-611), C-terminally His-tagged (human) (UniProt Q9BYF1). Kind of assay: mass photometry.

monomeric ACE2 (a.a 19-611), C-terminally His-tagged (human), sequence (Q9BYF1 19-611): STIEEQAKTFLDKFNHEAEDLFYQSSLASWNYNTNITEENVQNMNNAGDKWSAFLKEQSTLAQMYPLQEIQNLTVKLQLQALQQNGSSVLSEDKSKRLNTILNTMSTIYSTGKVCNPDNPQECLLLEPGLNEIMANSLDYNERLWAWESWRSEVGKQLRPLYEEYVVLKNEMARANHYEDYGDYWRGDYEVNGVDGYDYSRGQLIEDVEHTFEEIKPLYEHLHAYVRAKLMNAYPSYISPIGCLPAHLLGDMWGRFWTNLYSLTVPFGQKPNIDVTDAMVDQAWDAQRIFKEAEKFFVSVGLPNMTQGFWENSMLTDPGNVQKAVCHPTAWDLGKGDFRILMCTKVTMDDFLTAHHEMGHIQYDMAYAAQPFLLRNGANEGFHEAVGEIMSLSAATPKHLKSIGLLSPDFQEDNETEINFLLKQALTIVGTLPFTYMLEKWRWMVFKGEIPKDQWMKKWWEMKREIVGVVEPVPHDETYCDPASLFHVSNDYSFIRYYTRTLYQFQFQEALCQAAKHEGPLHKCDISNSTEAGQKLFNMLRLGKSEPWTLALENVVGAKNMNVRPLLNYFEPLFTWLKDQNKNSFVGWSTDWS

For “HEK-derived SARS-CoV-2 Wuhan-Hu-1 spike receptor-binding domain (RBDHEK) (from UniProt P0DTC2 319-541) (domain or fragment)”, in assay [1], the percent dimeric species was 19.6% and the stoichiometry N (usually a count of units in the complex or per binding partner) stood at 2. The substance also showed a binding occupancy in assay [2] of 33%.
